This is an account of results in patent publication US20050113304A1.

This test deals with Botulinum toxin B (UniProt P10844). As to the kind of experiment: cell-based or functional assay.

Buforin I (peptide) yielded an inhibition of BttxB endoprotease activity (cleavage of VAMP2 55-94, RP-HPLC) of 1000 nM.
Substance Buforin II (peptide) showed an inhibition of BttxB activity relative to B-I (% as effective as B-I) of 25.
